This assay concerns the target Tula virus (TULV) nonstructural protein NSs, strain Lodz, in infected cells (Tula virus, strain Lodz). The assay can be described thus: FRET or BRET. A general note: Bioluminescence resonance energy transfer reports proximity on the nanometre scale.

As to “ACBD3 protein, endogenous in common vole (Microtus arvalis) kidney cells (natural protein)”, the FRET efficiency is 20%.

(Values after publication PMC3323627.)
